The target of assay [1] is T1, hiR2-FL-L539A-T7 (human, UniProt Q6PJF5 1-856).
T1 construct: on MEF-DKO cells
T1 sequence: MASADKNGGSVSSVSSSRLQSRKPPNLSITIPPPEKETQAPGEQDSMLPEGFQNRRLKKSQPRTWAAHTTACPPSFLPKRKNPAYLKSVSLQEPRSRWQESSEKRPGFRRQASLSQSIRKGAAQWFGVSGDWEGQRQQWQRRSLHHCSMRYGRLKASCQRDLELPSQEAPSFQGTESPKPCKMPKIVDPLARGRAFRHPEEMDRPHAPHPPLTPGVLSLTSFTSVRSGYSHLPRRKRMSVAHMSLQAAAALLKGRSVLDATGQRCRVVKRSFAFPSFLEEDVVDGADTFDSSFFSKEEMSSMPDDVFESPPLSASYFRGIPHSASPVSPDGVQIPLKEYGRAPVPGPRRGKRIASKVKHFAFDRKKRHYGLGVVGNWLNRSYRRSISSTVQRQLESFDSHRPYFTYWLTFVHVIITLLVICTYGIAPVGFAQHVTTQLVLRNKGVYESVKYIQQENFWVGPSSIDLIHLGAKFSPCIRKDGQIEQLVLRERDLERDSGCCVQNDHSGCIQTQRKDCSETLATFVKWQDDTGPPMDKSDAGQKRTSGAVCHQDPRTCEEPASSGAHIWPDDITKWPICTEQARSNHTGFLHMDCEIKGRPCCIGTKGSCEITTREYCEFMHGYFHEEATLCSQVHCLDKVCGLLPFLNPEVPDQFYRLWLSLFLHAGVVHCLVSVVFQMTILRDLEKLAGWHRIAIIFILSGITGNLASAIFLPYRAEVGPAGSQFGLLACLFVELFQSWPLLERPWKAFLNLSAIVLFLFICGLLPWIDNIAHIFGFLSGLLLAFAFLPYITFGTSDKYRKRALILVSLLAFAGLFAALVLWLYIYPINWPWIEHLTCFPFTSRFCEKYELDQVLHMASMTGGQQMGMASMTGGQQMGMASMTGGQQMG
Description: FACS on MEF-DKO cells expressing the variant, 3 µg/ml antibody. The protocol:
(§1) To pellet cells and remove supernatants, the plates were centrifuged at 1,500 rpm and 4° C. for 3 minutes. For primary staining, cells were resuspended in 100 μl per well of either FACS buffer alone (controls) or the purified antibodies 3, 5, 16, 22, 34, 42, 43, 44, 48, and 50 of the invention at 3 μg/ml in FACS buffer and incubated on ice for 1 hour. Afterwards, plates were centrifuged at 1,500 rpm and 4° C. for 3 minutes and washed twice with 200 μl per well of FACS buffer. For secondary staining, cells were spun down and resuspended in 100 μl per well of PE-conjugated goat anti-mouse IgG F(ab′)2 detection fragment (Dianova, Germany) diluted 1:100 in FACS buffer. Protected from light, the cell suspensions were incubated on ice for 1 hour. Plates were then centrifuged at 1,500 rpm and 4° C. for 3 minutes and washed three times with 200 μl per well of FACS buffer. Finally, cells were resuspended in 150 μl per well of FACS buffer and analyzed using a BD Accuri™ C6 Plus flow cytometer (Becton Dickinson, Germany).

The target in assay [2] is T2, hiR2-FL-D535A-T7 (human, UniProt Q6PJF5 1-856).
T2 sequence: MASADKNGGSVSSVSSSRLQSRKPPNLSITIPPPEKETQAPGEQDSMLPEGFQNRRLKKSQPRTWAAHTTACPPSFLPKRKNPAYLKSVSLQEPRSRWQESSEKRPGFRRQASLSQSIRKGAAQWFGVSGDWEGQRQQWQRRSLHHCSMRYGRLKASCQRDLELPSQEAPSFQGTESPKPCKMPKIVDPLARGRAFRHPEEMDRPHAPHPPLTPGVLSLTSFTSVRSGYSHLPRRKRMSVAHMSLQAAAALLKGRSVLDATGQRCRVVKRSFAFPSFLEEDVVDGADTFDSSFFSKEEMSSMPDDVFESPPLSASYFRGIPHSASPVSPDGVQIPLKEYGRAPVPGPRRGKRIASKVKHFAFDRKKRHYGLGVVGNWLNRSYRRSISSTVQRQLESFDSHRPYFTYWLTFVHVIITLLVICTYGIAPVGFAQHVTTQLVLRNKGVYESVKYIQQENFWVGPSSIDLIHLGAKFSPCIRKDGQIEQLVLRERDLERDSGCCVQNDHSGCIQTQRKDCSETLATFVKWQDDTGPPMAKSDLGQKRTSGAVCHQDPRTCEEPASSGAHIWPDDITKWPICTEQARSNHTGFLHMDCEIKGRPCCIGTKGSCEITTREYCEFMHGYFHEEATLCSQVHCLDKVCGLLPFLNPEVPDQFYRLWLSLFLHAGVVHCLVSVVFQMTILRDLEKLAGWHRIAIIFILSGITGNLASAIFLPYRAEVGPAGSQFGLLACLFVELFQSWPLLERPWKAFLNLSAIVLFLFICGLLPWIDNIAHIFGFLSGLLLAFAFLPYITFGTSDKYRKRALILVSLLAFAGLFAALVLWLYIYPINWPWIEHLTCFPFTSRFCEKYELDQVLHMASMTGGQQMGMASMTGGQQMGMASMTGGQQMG
The description is as above. The protocol: as §1

Consider eight molecules from patent US20240287172A1 (SCIRHOM, published 2024).

Bounds are passed on as bounds.

B1: antibody 50 (antibody, V domains shown)
VH: QVQLQQSGAELVRPGASVKVSCKASGYAFSNYLIEWVKQRPGQGLEWIGVINPGSGFTKYNEKFKGKATLTADKSSSTAYMQLSSLTSEDSAVYFCARGLYRAMDYWGQGTSVTVSS
VL: DIQMTQSPASQSASLGESVTITCLASQTIGTWLAWYQQKPGKSPQLLIYAAASLADGVPSRFSGGGSGTKFSFKISSLQAEDFVNYYCQQIYSTPYTFGGGTKLEIK
notes: mouse IgG, kappa light chain; also called clone #50; purified antibody 50
In the case of B1, in assay [1], the “loss of binding vs wild type” value was not below 30%.

B2: antibody 3 (antibody, V domains shown)
VH: QVTLKESGPGILQPSQTLSLTCSFSGFSLTTFAMGIGWVRQPSGKGLEWLAHIWWDGEKYNNPVLKSRLTISKDTSKNQVFLRIANVDTPDTATYYCARISSIYYIIDNWGQGTSVTVSS
VL: DIVLTQSPATLSVTPGHSVSLSCRASQSISNNLHWYQKKSHESPRLLIKYVSQSISGIPSRFSGSGSGTDFTLSINSVETEDFGMYFCQQSYNWPLTFGAGTKLELK
notes: mouse IgG, kappa light chain; also called clone #3; purified antibody 3
Take B2: the “loss of binding vs wild type” value in assay [1] was not below 30%; in assay [2] it was not below 60%.

B3: antibody 5 (antibody, V domains shown)
VH: QVTLKESGPGILQPSQTLSLTCSFSGFSLSTFGMGVGWIRQPSGKGLEWLAHIWWDDEKYYNSALKSRLTISKATSKNQAFLKIANVDTADTATYYCARISNYGSNYWYFNVWGTGTTVTVSS
VL: QVVLTQSPALMSASPGEKVTMTCSAGSSVSCMYWYQQKPGSSPRVLIYDTSNLASGVPARFTGSGSGTSYSLTISRMEAEDAASYYCQQWNSYPLTFGAGTKLELK
notes: mouse IgG, kappa light chain; also called clone #5; purified antibody 5
Consider B3, for which the “loss of binding vs wild type” value in assay [1] and in assay [2] was not below 60% throughout.

B4: antibody 44 (antibody, V domains shown)
VH: QVTLKESGPGILQPSQTLSLTCSFSGFSLSTFGMGVGWIRQPSEKGLEWLAHIWWDDDKYYNPALKSRLTISKDTSKNQIFLKITNVDTAETATYYCSRIGNYGSNYWYFDVWGTGTTVTVSS
VL: QIVLTQSPAVMSASPGEKVTMTCTASSSVYYMYWYQQTPGSSPRLLIYDTSNLASGVPVRFSGSGSGTSYSLTISRMEAEDAATYYCQQWNTYPLTFGAGTKLELK
notes: mouse IgG, kappa light chain; also called clone #44; purified antibody 44
As for B4, the “loss of binding vs wild type” value in assay [1] was not below 60%; in assay [2], not below 30%.

B5: antibody 43 (antibody, V domains shown)
VH: QVALKESGPGILQPSQTLSLTCSFSGFSLSTFGMGVGWIRQSSGKGLEWLANIWWDDDKYYNPALKSRLTISKDASKNQAFLKIANVDTADTATYYCARIGNYGSNYWYFDVWGTGTTVTVSS
VL: QIVLTQSPAIMSASPGERVTMTCSANSRISYMYWYQQKPGSSPRLLIYDTSNLASGVPVRFSGSGSGTSYSLTISRMEAEDAATYNCQQWSSYPLTFGAGTKLELK
notes: mouse IgG, kappa light chain; also called clone #43; purified antibody 43
For the molecule B5, in assay [1], the “loss of binding vs wild type” value was not below 95%.

B6: antibody 42 (antibody, V domains shown)
VH: QVTLKESGPGILQPSQTLSLTCSLSGFSLSTFGRGVGWIRQPSGKGLEWLAHIWWDDEKYYNPALKSRLTISKDTSKNQVFLRIANVDTADTATYYCARIQNYGSNYWYFDVWGTGTTVTVSS
VL: LIVLTQSPAIMSASPGEKVTMTCGATSRISYMFWYQQKPGSSPRVLIYDTSNLASGVPVRFSGSGSGTSYSLTISRVEAEDVATYYCQQWNSYPLTFGAGTKLELK
notes: mouse IgG, kappa light chain; also called clone #42; purified antibody 42
With B6, the “loss of binding vs wild type” value in assay [1] was not below 60%; in assay [2] it was not below 30%.

B7: antibody 22 (antibody, V domains shown)
VH: QVTLKESGPGILQPSQTLSLTCSFSGFSLSTFGMGVGWIRQPSGKGLEWLAHIWWDDEKYYNSALKSRLTISKATSKNQVFLKIANVDTADTATYYCARISNYGSNYWYFNVWGTGTTVTVSS
VL: QVVLTQSPALMSASPGEKVTMTCSAGSSVSYMYWYQQKPGSSPRVLIYDTSNLASGVPARFTGSGSGTSYSLTISRMEAEDAATYYCQQWNSYPLTFGAGTKLELK
notes: mouse IgG, kappa light chain; also called clone #22; purified antibody 22
Regarding B7, the “loss of binding vs wild type” value is not below 95% in assay [1] and not below 30% in assay [2].

B8: antibody 34 (antibody, V domains shown)
VH: QVTLKESGPGILQPSQTLSLTCSFSGFSLSTFSLGVGWIRQSSGKGLEWLAHIWWDDEKYYNPALKSRLTISKDTSKNQVFLKIANVDAADTATYYCARAYYSKSYYALDYWGQGTSVTVSS
VL: DIQMTQSPSSLSASLGERVSLTCRASQEISGYLSWLQQKPDGTIKRLIYAASTLDSGVPKRFSGSRSGSDYSLAISSLESEDFADYYCLQYANFPFTFGSGTKLEIK
notes: mouse IgG, kappa light chain; also called clone #34; purified antibody 34
As for B8, the “loss of binding vs wild type” value in assay [1] is not below 60%; in assay [2], not below 30%.
